Measured values as given in US20110008350A1 (published 2011).

T1: Integrin alpha-3 (mouse, UniProt Q62470 33-1053, limits assumed)
T1 construct: also called Itga3; α3β1 integrin (alpha chain)
T1 sequence (looked up): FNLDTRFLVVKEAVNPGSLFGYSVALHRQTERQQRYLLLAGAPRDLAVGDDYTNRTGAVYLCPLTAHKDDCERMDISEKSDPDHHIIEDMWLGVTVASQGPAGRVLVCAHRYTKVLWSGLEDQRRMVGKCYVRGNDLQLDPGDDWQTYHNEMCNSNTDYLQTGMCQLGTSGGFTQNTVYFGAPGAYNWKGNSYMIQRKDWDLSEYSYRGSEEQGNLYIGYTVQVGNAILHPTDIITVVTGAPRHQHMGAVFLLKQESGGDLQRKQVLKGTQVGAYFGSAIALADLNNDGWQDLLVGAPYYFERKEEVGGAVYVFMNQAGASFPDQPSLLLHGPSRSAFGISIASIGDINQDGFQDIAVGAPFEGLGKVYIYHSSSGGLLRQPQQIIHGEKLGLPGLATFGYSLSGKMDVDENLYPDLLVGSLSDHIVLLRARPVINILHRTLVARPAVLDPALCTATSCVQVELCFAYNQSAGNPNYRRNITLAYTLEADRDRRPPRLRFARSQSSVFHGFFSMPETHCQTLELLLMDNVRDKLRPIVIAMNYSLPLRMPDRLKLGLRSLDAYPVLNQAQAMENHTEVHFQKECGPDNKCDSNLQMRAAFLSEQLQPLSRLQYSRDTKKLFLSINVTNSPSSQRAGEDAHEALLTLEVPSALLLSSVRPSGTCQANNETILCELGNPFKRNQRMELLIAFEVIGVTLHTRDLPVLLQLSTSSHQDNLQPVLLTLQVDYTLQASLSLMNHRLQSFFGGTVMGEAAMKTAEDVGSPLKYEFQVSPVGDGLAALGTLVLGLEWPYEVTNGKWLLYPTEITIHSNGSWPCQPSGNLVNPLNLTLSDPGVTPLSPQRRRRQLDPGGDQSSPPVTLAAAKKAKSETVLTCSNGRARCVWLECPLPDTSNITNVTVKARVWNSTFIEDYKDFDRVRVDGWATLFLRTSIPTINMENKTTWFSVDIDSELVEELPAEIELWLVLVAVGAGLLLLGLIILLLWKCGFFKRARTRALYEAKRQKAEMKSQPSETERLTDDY

T2: PGRL/EWI-2 (endogenous, MEF cells) (mouse, UniProt Q8R366 26-611)
T2 construct: also called Igsf8
T2 sequence (looked up): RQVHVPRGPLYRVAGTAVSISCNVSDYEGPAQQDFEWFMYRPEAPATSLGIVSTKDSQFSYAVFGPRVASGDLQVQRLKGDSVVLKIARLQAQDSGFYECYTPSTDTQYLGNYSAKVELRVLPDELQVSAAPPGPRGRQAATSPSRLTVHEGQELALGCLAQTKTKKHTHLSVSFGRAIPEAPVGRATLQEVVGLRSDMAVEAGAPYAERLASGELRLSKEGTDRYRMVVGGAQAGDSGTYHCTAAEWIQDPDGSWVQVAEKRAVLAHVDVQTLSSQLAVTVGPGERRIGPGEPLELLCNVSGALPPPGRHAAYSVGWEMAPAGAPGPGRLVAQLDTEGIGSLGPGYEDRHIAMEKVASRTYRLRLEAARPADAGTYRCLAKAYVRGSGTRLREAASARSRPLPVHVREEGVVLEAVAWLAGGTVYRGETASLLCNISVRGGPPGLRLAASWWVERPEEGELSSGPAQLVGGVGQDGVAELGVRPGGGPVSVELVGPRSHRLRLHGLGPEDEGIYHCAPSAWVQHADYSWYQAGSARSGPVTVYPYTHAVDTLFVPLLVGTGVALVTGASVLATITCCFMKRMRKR

B1: CD81/TAPA-1 (endogenous, MEF cells) (other, mouse, UniProt P35762 1-236, looked up)
chain: MGVEGCTKCIKYLLFVFNFVFWLAGGVILGVALWLRHDPQTTSLLYLELGNKPAPNTFYVGIYILIAVGAVMMFVGFLGCYGAIQESQCLLGTFFTCLVILFACEVAAGIWGFVNKDQIAKDVKQFYDQALQQAVMDDDANNAKAVVKTFHETLNCCGSNALTTLTTTILRNSLCPSGGNILTPLLQQDCHQKIDELFSGKLYLIGIAAIVVAVIMIFEMILSMVLCCGIRNSSVY
B2: dTag PSH1 (double-tagged human Presenilin homolog 1) (other, UniProt Q8TCT6 1-384, looked up, not shown: small tags and cut ends)
chain: MAEQTYSWAYSLVDSSQVSTFLISILLIVYGSFRSLNMDFENQDKEKDSNSSSGSFNGNSTNNSIQTIDSTQALFLPIGASVSLLVMFFFFDSVQVVFTICTAVLATIAFAFLLLPMCQYLTRPCSPQNKISFGCCGRFTAAELLSFSLSVMLVLIWVLTGHWLLMDALAMGLCVAMIAFVRLPSLKVSCLLLSGLLIYDVFWVFFSAYIFNSNVMVKVATQPADNPLDVLSRKLHLGPNVGRDVPRLSLPGKLVFPSSTGSHFSMLGIGDIVMPGLLLCFVLRYDNYKKQASGDSCGAPGPANISGRMQKVSYFHCTLIGYFVGLLTATVASRIHRAAQPALLYLVPFTLLPLLTMAYLKGDLRRMWSEPFHSKSSSSRFLEV
notes: Control bait, stably expressed in PS dKO MEF cells; also called dTag SPPL3; SPP-like protease 3

How the values were obtained:
[1] = molecular target: B2; assay: TAP-tag purification from MEF membranes, LC-MS/MS
Procedure: (§1) Harvested MEF cells were re-suspended in STE buffer (5 mM Tris-HCl pH 7.4, 250 mM sucrose, 1 mM EGTA) supplemented with the Complete protease inhibitors. The cells were lysed by being passed ten times through a ball-bearing cell cracker followed by removal of the nuclei and cell debris by centrifugation at 800×g for ten minutes at 4° C. The supernatant was further centrifuged at 100,000×g for 60 minutes at 4° C. The microsomal membrane pellet was re-suspended in the solubilization buffer (HEPES buffer; 50 mM HEPES pH 7.2, 150 mM NaCl with 1% 3-[(3-Cholamidopropyl)dimethylammonio]-2-hydroxy-1-propanesulfonate (CHAPSO, Calbiochem) or 0.5% 3-[(3-Cholamidopropyl) dimethylammonio]-1-propanesulfonate (CHAPS, Calbiochem)) supplemented with the Complete protease inhibitors and was solubilized at 4° C. for three hours. After centrifugation at 100,000×g for 60 minutes at 4° C., the supernatant was saved and protein concentration was determined. The solubilized membranes were applied on pre-equilibrated anti-FLAG M2 affinity gel (Sigma). The gel was washed with the solubilization buffer and bound proteins were eluted with solubilization buffer with 20 μg/ml of FLAG peptides (Sigma). […] After washing, the bound proteins were eluted with 5 mM EGTA.

Integrin alpha-3 = molecular target: T1, Integrin alpha-3; assay: TAP-tag purification from MEF membranes, LC-MS/MS
Procedure: as §1

Integrin beta-1 = molecular target: T3, Integrin beta-1 (mouse, UniProt P09055 21-798); assay: TAP-tag purification from MEF membranes, LC-MS/MS
T3 construct: also called Itgb1; α3β1 integrin (beta chain)
Procedure: as §1

[2] = molecular target: T2, PGRL/EWI-2 (endogenous, MEF cells); assay: TAP-tag purification from MEF membranes, LC-MS/MS
Procedure: as §1

[3] = molecular target: T4, Nicastrin (endogenous, MEF cells) (mouse, UniProt P57716 28-708); assay: TAP-tag purification from MEF membranes, Western blot
T4 construct: also called NCT
Procedure: Insoluble fractions were removed by centrifugation at 15,000×g for 15 minutes at 4° C. Protein concentration was determined by the Bradford dye-binding procedure (Bio-Rad). […] Membranes were blocked with 5% skim milk in TBS and probed with antibodies followed by incubation with horseradish peroxidase conjugated antibodies (Bio-Rad). Bands were detected with Renaissance (ParkinElmer).
Harvested MEF cells were re-suspended in STE buffer (5 mM Tris-HCl pH 7.4, 250 mM sucrose, 1 mM EGTA) supplemented with the Complete protease inhibitors. The cells were lysed by being passed ten times through a ball-bearing cell cracker followed by removal of the nuclei and cell debris by centrifugation at 800×g for ten minutes at 4° C. The supernatant was further centrifuged at 100,000×g for 60 minutes at 4° C. The microsomal membrane pellet was re-suspended in the solubilization buffer (HEPES buffer; 50 mM HEPES pH 7.2, 150 mM NaCl with 1% 3-[(3-Cholamidopropyl)dimethylammonio]-2-hydroxy-1-propanesulfonate (CHAPSO, Calbiochem) or 0.5% 3-[(3-Cholamidopropyl) dimethylammonio]-1-propanesulfonate (CHAPS, Calbiochem)) supplemented with the Complete protease inhibitors and was solubilized at 4° C. for three hours. After centrifugation at 100,000×g for 60 minutes at 4° C., the supernatant was saved and protein concentration was determined. […]

## B1
[1]
  binding result: no binding

## B2
Integrin alpha-3
  binding result: no binding
Integrin beta-1
  binding result: no binding
[2]
  binding result: no binding
[3]
  binding result: no binding
